Measured values published in publication PMC5034309, “Real-time visualization of conformational changes within single MloK1 cyclic nucleotide-modulated channels” (Nature Communications, 2016).

Target: the molecule itself
Experiment: high-speed atomic force microscopy (HS-AFM); MloK1 2D crystals in lipid membrane adsorbed on mica; imaging buffer 10 mM Tris pH 7.4, 150 mM KCl, 100 uM cAMP; oscillating mode

B1: MloK1 cyclic nucleotide-modulated channel from Mesorhizobium loti (natural protein, UniProt Q98GN8 1-355, looked up)
chain: MSVLPFLRIYAPLNAVLAAPGLLAVAALTIPDMSGRSRLALAALLAVIWGAYLLQLAATLLKRRAGVVRDRTPKIAIDVLAVLVPLAAFLLDGSPDWSLYCAVWLLKPLRDSTFFPVLGRVLANEARNLIGVTTLFGVVLFAVALAAYVIERDIQPEKFGSIPQAMWWAVVTLSTTGYGDTIPQSFAGRVLAGAVMMSGIGIFGLWAGILATGFYQEVRRGDFVRNWQLVAAVPLFQKLGPAVLVEIVRALRARTVPAGAVICRIGEPGDRMFFVVEGSVSVATPNPVELGPGAFFGEMALISGEPRSATVSAATTVSLLSLHSADFQMLCSSSPEIAEIFRKTALERRGAAASA
notes: MloK1, cyclic nucleotide-modulated potassium channel of Mesorhizobium loti, full-length, wild type; The C-terminal hexahistidine tag was cleaved with thrombin after 2D crystallisation and before HS-AFM; Residues of the thrombin site may remain; also called wild-type MloK1; not shown: His6, C-terminal, cleaved
stoichiometry N: 4
